Results: patent publication US20110217237A1 (AbbVie / Abbott, published 2011)
Where a chain is given by its changes, count along the chain named. Values belong to the binder of their own block, whether it stands above or below them.

Key:
[1] = target: T1, human DLL4, full length, on cells (human, UniProt Q9NR61 27-685); assay: FACS, direct binding to DLL4 cells
T1 construct: also called huDLL4 cells; human DLL4-293G
Description: (§1) Stable cell lines overexpressing cell-surface DLL4 were harvested from tissue culture flasks, washed four times and resuspended in phosphate buffered saline (PBS) containing 1% bovine serum albumin and 1 mM CaCl₂ (FACS buffer). 1.5×10⁵ cells were incubated with antibodies at various concentrations in FACS buffer for 60 minutes on ice. […] Following an incubation on ice (4° C., 60 minutes), cells were washed three times and resuspended in FACS buffer. Fluorescence was measured using a Becton Dickinson FACSCalibur-HTS (Becton Dickinson, San Jose, Calif., US). Data were analyzed using Graphpad Prism software and EC₅₀ values were reported as the concentration of antibody to achieve 50% of maximal DLL4 antibodies binding to DLL4 expressing cells.
(§2) The hu1A11.1 affinity matured clones (Table 22) were expressed, purified, and further characterized in vitro. Their activities of binding to cell-bound DLL4 and inhibiting cell-bound DLL4-induced Notch activation were further examined using methods described in Examples 1.3 and 1.6, and are summarized in Table 26 (below).

mouse DLL4 on cells [2] = target: T2, mouse DLL4 on cells (mouse, UniProt Q9JI71 27-686); assay: FACS, direct binding to DLL4 cells
T2 construct: whole, on cells; also called mouse DLL4-293G; mu DLL4 cells
Description: as §1, §2

[3] = target: T3, cynomolgus monkey DLL4 extracellular domain (cynomolgus monkey); assay: SPR (Biacore)
T3 construct: extracellular domain; also called cynoDLL4 ECD; Cyno DLL4
Description: (§3) The BIACORE® surface plasmon resonance assay (Biacore, Inc., Piscataway, N.J., US) determines the affinity of antibodies with kinetic measurements of on-rate and off-rate constants. Binding of DLL4 antibodies to a purified recombinant DLL4 extracellular domain (ECD) was determined by surface plasmon resonance-based measurements with a Biacore® instrument (either a Biacore 2000, Biacore 3000, or Biacore T100; GE Healthcare, Piscataway, N.J., US) using running buffer HBS-EPB (10 mM HEPES [pH 7.4], 150 mM NaCl, 3 mM EDTA, 0.1 mg/ml BSA and 0.005% surfactant P20) at 25° C. For example, approximately 9000 RU of goat anti-human Fc specific polyclonal antibody (Thermo Fisher Scientific Inc., Rockford, Ill., US) diluted in 10 mM sodium acetate (pH 4.5) is directly immobilized across a CMS research grade biosensor chip using a standard amine coupling kit according to manufacturer's instructions and procedures at 25 μg/ml. Unreacted moieties on the biosensor surface were blocked with ethanolamine. For kinetic analysis, rate equations derived from the 1:1 Langmuir binding model were fitted simultaneously to multiple antigen injections (using global fit analysis) with the use of Scrubber 2 (BioLogic Software), Biacore Biaevaluation 4.0.1 software or Biacore T100 Evaluation software. Purified antibodies were diluted in running buffer for capture across goat anti-human Fc reaction surfaces. Antibodies to be captured as a ligand (1 μg/ml) were injected over reaction matrices at a flow rate of 10 μl/min. During the assay, all measurements were referenced against the capture surface alone (i.e., with no captured anti-DLL4 antibody). […] The equilibrium dissociation constant KD (M) of the reaction between antibodies and the target antigen was then calculated from the kinetic rate constants by the following formula: KD=Koff/Kₒₙ. Binding was recorded as a function of time and kinetic rate constants were calculated.

[4] = target: T4, human DLL4 extracellular domain (human, UniProt Q9NR61 27-529); assay: SPR (Biacore)
T4 construct: purified recombinant ECD; biotin-labelled or 6xHis-tagged depending on the assay; also called huDLL4 ECD; hu DLL4 ECD
Description: as §3

[5] = target: T1, human DLL4, full length, on cells; assay: cell-based or functional assay
mouse DLL4 on cells [6] = target: T2, mouse DLL4 on cells; assay: cell-based or functional assay
[7] = target: T5, rat DLL4 extracellular domain (rat, UniProt D3ZHH1 28-530); assay: SPR (Biacore)
T5 construct: extracellular domain; also called ratDLL4 ECD
Description: as §3

[8] = target: T6, mouse DLL4 extracellular domain (mouse, UniProt Q9JI71 27-532); assay: SPR (Biacore)
T6 construct: extracellular domain; also called muDLL4 ECD; murine DLL4
Description: as §3

T1 sequence (Q9NR61 27-685 limits assumed): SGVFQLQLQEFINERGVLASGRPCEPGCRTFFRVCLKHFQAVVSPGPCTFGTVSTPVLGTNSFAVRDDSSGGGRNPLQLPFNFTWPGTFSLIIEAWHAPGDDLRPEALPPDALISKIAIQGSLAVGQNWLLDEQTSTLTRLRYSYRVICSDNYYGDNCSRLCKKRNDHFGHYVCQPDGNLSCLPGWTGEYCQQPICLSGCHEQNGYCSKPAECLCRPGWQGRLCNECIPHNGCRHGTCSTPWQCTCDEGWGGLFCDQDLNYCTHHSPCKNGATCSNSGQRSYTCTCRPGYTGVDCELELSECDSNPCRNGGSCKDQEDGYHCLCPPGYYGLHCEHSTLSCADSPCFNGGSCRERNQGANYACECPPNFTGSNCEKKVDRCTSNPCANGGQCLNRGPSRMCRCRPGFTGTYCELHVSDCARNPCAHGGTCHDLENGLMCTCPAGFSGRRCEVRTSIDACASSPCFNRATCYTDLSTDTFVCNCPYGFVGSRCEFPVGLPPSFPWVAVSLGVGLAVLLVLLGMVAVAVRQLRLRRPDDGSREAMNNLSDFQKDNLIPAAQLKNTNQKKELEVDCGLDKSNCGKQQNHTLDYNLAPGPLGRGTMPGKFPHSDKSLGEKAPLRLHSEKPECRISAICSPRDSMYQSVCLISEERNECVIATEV
T2 sequence (Q9JI71 27-686): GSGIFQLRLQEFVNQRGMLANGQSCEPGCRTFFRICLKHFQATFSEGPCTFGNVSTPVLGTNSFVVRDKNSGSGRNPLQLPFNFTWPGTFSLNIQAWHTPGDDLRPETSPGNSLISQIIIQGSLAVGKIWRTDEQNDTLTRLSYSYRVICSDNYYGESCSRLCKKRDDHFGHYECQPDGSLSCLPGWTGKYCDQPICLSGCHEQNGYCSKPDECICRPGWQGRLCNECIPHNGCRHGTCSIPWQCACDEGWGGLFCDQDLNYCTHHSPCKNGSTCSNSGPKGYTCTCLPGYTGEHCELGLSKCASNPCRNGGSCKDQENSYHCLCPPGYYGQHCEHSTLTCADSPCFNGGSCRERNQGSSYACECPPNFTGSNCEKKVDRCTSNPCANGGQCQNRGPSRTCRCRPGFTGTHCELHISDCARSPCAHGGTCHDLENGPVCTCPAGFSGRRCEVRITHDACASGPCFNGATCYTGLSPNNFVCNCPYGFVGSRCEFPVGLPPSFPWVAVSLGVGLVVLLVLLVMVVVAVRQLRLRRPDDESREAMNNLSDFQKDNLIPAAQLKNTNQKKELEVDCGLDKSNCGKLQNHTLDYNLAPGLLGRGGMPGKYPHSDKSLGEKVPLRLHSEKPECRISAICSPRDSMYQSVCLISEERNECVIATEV
T6 sequence (Q9JI71 27-532): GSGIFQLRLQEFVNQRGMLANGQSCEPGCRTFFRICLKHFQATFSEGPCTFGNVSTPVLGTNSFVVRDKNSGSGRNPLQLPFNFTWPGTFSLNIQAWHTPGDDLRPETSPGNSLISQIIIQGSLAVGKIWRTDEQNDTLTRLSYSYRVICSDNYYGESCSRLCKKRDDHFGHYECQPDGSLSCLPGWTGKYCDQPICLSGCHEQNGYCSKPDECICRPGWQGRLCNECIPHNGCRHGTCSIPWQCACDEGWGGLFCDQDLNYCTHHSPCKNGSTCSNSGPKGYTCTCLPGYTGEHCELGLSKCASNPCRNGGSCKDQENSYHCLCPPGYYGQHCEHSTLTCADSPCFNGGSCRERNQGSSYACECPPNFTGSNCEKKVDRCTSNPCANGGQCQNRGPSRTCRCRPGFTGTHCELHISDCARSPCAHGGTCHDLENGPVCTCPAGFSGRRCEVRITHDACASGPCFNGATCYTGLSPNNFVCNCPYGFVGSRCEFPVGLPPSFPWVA
T5 sequence (D3ZHH1 28-530): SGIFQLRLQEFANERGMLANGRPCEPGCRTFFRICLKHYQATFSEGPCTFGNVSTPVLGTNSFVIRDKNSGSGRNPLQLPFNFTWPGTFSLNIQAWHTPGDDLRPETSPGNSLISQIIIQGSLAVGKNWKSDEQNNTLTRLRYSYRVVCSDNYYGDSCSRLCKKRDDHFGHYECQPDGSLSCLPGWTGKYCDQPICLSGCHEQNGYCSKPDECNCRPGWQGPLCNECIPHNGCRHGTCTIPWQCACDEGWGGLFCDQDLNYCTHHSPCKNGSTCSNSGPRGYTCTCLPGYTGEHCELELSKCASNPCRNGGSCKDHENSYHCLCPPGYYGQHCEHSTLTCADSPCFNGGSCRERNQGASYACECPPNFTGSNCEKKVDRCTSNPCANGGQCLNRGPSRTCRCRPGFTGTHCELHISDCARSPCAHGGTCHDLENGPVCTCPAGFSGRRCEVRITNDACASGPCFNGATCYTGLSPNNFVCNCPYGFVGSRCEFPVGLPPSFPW
T4 sequence (Q9NR61 27-529 limits assumed): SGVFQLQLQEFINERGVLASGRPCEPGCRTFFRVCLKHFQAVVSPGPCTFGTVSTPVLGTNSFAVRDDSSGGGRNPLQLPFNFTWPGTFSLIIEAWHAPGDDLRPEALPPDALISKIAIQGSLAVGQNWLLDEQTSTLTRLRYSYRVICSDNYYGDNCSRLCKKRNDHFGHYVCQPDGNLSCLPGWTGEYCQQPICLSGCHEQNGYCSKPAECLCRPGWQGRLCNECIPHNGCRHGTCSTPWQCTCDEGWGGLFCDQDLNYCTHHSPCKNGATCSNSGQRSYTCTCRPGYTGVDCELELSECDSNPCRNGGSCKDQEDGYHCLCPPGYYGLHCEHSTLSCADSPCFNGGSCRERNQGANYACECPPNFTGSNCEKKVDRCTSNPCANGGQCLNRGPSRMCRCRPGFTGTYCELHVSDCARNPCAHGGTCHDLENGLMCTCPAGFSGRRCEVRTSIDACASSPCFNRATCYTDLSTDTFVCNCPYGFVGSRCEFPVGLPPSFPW

EC50 [1]: 3.59 nM | EC50 (mouse DLL4 on cells [2]): 1.4 nM | Kd [3]: 0.17 nM | koff [3]: 1.73e-05 s⁻¹ | kon [3]: 99000 M⁻¹ s⁻¹ | Kd [4]: 0.087 nM | koff [4]: 9.39e-06 s⁻¹ | kon [4]: 109000 M⁻¹ s⁻¹ | Inhibition of Notch Activation via DLL4 cells, Notch reporter assay [5]: 1.84 nM | Inhibition of Notch Activation via DLL4 cells, Notch reporter assay (mouse DLL4 on cells [6]): 2.35 nM | Kd [7]: 8.6 nM | koff [7]: 0.00101 s⁻¹ | kon [7]: 118000 M⁻¹ s⁻¹ | Kd [8]: 0.35 nM | koff [8]: 4.04e-05 s⁻¹ | kon [8]: 117000 M⁻¹ s⁻¹
B1: h1A11.G3 (antibody, V domains shown)
VH: EVQLVESGGGLVQPGGSLRLSCAASGFTFRYFPMSWVRQAPGKGLEWVASISGSDGWASYRDSVKGRFTISRDNAKNSLYLQMNSLRAEDTAVYYCARGYYNSPFAYWGQGTLVTVSS
VL: DIQMTQSPSSLSASVGDRVTITCRASQEIYRNLAWYQQKPGKSPKLLIFDTSVLADGVPSRFSGSGSGTDSTLTISSLQPEDFATYYCQQYTYYPPTFGQGTKLEIK
notes: also called h1A11.G3 VH / h1A11.E12 VL

EC50 [1]: 0.996 nM | EC50 (mouse DLL4 on cells [2]): 1.61 nM | Kd [3]: 0.28 nM | koff [3]: 3.84e-05 s⁻¹ | kon [3]: 137000 M⁻¹ s⁻¹ | Kd [4]: 0.22 nM | koff [4]: 3.26e-05 s⁻¹ | kon [4]: 149000 M⁻¹ s⁻¹ | Inhibition of Notch Activation via DLL4 cells, Notch reporter assay [5]: 0.208 nM | Inhibition of Notch Activation via DLL4 cells, Notch reporter assay (mouse DLL4 on cells [6]): 0.266 nM | Kd [7]: 1.6 nM | koff [7]: 0.000175 s⁻¹ | kon [7]: 108000 M⁻¹ s⁻¹ | Kd [8]: 0.35 nM | koff [8]: 5.44e-05 s⁻¹ | kon [8]: 156000 M⁻¹ s⁻¹
B2: h1A11.E12 (antibody, V domains shown)
VH: B1 VH with S35A, S50T, G56E, A58P, S59N, Y107F
VL: B1 VL
notes: also called h1A11.E12 VH / h1A11.E12 VL

EC50 [1]: 2.48 nM | EC50 (mouse DLL4 on cells [2]): 0.5 nM | Kd [3]: 0.2 nM | koff [3]: 3.35e-05 s⁻¹ | kon [3]: 170000 M⁻¹ s⁻¹ | Kd [4]: 0.15 nM | koff [4]: 2.66e-05 s⁻¹ | kon [4]: 183000 M⁻¹ s⁻¹ | Inhibition of Notch Activation via DLL4 cells, Notch reporter assay [5]: 0.904 nM | Inhibition of Notch Activation via DLL4 cells, Notch reporter assay (mouse DLL4 on cells [6]): 1.18 nM | Kd [7]: 8.8 nM | koff [7]: 0.00102 s⁻¹ | kon [7]: 116000 M⁻¹ s⁻¹ | Kd [8]: 0.18 nM | koff [8]: 3.54e-05 s⁻¹ | kon [8]: 198000 M⁻¹ s⁻¹
B4: h1A11.A11 (antibody, V domains shown)
VH: B1 VH with Y31H, S35A, S50T, G53S, G56D, A58P, S59N, N77S, A97S
VL: B1 VL with Q27E, E28D, R31S, S43A, F49Y, S52N, V53N, S71F, T92N, Y93N
notes: also called h1A11.A11 VH / h1A11VL.1

EC50 [1]: 3.16 nM | EC50 (mouse DLL4 on cells [2]): 0.744 nM | Kd [3]: 0.15 nM | koff [3]: 2.4e-05 s⁻¹ | kon [3]: 160000 M⁻¹ s⁻¹ | Kd [4]: 0.062 nM | koff [4]: 1.08e-05 s⁻¹ | kon [4]: 174000 M⁻¹ s⁻¹ | Inhibition of Notch Activation via DLL4 cells, Notch reporter assay [5]: 1.33 nM | Inhibition of Notch Activation via DLL4 cells, Notch reporter assay (mouse DLL4 on cells [6]): 1.25 nM | Kd [7]: 47 nM | koff [7]: 0.0065 s⁻¹ | kon [7]: 139000 M⁻¹ s⁻¹ | Kd [8]: 0.18 nM | koff [8]: 3.27e-05 s⁻¹ | kon [8]: 187000 M⁻¹ s⁻¹
B5: h1A11.A8 (antibody, V domains shown)
VH: B1 VH with R30G, Y31N, G53S, G56S, S59T, Y60I, R61G, A97S
VL: B1 VL with Q27E, E28D, R31S, S43A, F49Y, S52N, V53N, S71F, T92N, Y93N
notes: also called h1A11.A8 VH / h1A11VL.1

Further lines, the binder ahead of its results:

B3: h1A11.H2 (antibody, V domains shown)
VH: B1 VH with R30G, Y31N, G53S, G56S, S59T, Y60I, R61G, Y107F
VL: B1 VL
notes: also called h1A11.H2 VH / h1A11.E12 VL
EC50 [1]: 1.98 nM | EC50 (mouse DLL4 on cells [2]): 0.42 nM | Kd [3]: 0.35 nM | koff [3]: 4.6e-05 s⁻¹ | kon [3]: 131000 M⁻¹ s⁻¹ | Kd [4]: 0.27 nM | koff [4]: 3.85e-05 s⁻¹ | kon [4]: 143000 M⁻¹ s⁻¹ | Inhibition of Notch Activation via DLL4 cells, Notch reporter assay [5]: 0.856 nM | Inhibition of Notch Activation via DLL4 cells, Notch reporter assay (mouse DLL4 on cells [6]): 0.586 nM | Kd [7]: 16 nM | koff [7]: 0.00283 s⁻¹ | kon [7]: 178000 M⁻¹ s⁻¹ | Kd [8]: 0.33 nM | koff [8]: 5.07e-05 s⁻¹ | kon [8]: 154000 M⁻¹ s⁻¹

B6: h1A11.A2 (antibody, V domains shown)
VH: B1 VH with R30S, Y31N, S35A, S50T, G53S, W57T, A58T, S59Y
VL: B1 VL with E28D, R31I, S52N, V53D, S71F, T92D, Y94V
notes: also called h1A11VH.1 / h1A11.A2 VL
EC50 [1]: 2.38 nM | EC50 (mouse DLL4 on cells [2]): 0.634 nM | Kd [3]: 3.9 nM | koff [3]: 0.000527 s⁻¹ | kon [3]: 134000 M⁻¹ s⁻¹ | Kd [4]: 3 nM | koff [4]: 0.000421 s⁻¹ | kon [4]: 142000 M⁻¹ s⁻¹ | Inhibition of Notch Activation via DLL4 cells, Notch reporter assay [5]: 3.68 nM | Inhibition of Notch Activation via DLL4 cells, Notch reporter assay (mouse DLL4 on cells [6]): 0.854 nM | binding result [7]: no binding | Kd [8]: 5 nM | koff [8]: 0.000904 s⁻¹ | kon [8]: 181000 M⁻¹ s⁻¹

B7: h1A11.F5 (antibody, V domains shown)
VH: B1 VH with Y31H, S35A, S50T, G53S, G56A, A58P
VL: B1 VL
notes: also called h1A11.F5 VH / h1A11.E12 VL
EC50 [1]: 1.17 nM | EC50 (mouse DLL4 on cells [2]): 0.46 nM | Kd [3]: 0.17 nM | koff [3]: 2e-05 s⁻¹ | kon [3]: 118000 M⁻¹ s⁻¹ | Kd [4]: 0.075 nM | koff [4]: 9.82e-06 s⁻¹ | kon [4]: 131000 M⁻¹ s⁻¹ | Inhibition of Notch Activation via DLL4 cells, Notch reporter assay [5]: 0.484 nM | Inhibition of Notch Activation via DLL4 cells, Notch reporter assay (mouse DLL4 on cells [6]): 0.649 nM | Kd [7]: 5.8 nM | koff [7]: 0.000679 s⁻¹ | kon [7]: 116000 M⁻¹ s⁻¹ | Kd [8]: 0.28 nM | koff [8]: 3.97e-05 s⁻¹ | kon [8]: 143000 M⁻¹ s⁻¹

B8: h1A11.B4 (antibody, V domains shown)
VH: B1 VH with R30S, Y31N, S35A, S50T, G53S, W57T, A58T, S59Y
VL: B1 VL with E28D, R31Y, S43A, S52N, V53I, S71F, Y87F, T92D, Y94V
notes: also called h1A11VH.1 / h1A11.B4 VL
EC50 [1]: 2.15 nM | EC50 (mouse DLL4 on cells [2]): 0.665 nM | Kd [3]: 6.9 nM | koff [3]: 0.00099 s⁻¹ | kon [3]: 143000 M⁻¹ s⁻¹ | Kd [4]: 5.2 nM | koff [4]: 0.000823 s⁻¹ | kon [4]: 157000 M⁻¹ s⁻¹ | Inhibition of Notch Activation via DLL4 cells, Notch reporter assay [5]: 3.28 nM | Inhibition of Notch Activation via DLL4 cells, Notch reporter assay (mouse DLL4 on cells [6]): 1.08 nM | binding result [7]: no binding | Kd [8]: 5.2 nM | koff [8]: 0.0025 s⁻¹ | kon [8]: 479000 M⁻¹ s⁻¹
